# Reference: paper PMC8498191, “Structural and Mechanistic Insights Into Dimethylsulfoxide Formation Through Dimethylsulfide Oxidation” (Frontiers in Microbiology, 2021)
# T1: Tmm7211 (Candidatus Pelagibacter sp. HTCC7211, UniProt B6BQB2)
# T1 construct: gene tmm; full-length synthesized gene (1335 bp, 444 residues, 52 kDa), N-terminal His tag (pET28a), E. coli BL21(DE3); Ni-NTA and Superdex-200
# T1 sequence (B6BQB2 1-444): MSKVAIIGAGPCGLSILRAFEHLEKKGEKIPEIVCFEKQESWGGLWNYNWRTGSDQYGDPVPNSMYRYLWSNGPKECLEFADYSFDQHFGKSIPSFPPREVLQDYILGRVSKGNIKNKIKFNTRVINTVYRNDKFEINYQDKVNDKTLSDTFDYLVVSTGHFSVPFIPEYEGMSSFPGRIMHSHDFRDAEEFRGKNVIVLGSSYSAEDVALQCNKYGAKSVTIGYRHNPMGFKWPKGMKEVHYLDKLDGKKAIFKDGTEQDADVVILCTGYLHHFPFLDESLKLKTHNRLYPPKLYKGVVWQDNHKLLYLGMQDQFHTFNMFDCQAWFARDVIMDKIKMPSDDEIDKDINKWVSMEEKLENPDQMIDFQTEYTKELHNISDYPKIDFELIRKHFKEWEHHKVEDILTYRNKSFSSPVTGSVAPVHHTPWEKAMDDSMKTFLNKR
# Assays:
# Tmm7211 [1] = target: T1, Tmm7211; test: NADPH oxidation at […] nm; assay type: biochemical; conditions: read-out: Apparent KM; 0.25 mM NADPH, 1 μM enzyme, 10 mM Tris-HCl pH 7.0, 100 mM NaCl
# Tmm7211 [2] = target: T1, Tmm7211; test: X-ray crystal structure, […] Å; assay type: binding
# purified protein [3] = substrate: Cn1cc[nH]c1=S; test: purified protein; conditions: 0.25 mM NADPH, 1 μM enzyme, 10 mM Tris-HCl pH 7.0, 100 mM NaCl
# purified protein [4] = substrate: CN(C)C; test: purified protein; assay type: biochemical, Candidatus Pelagibacter sp. HTCC7211; conditions: 0.25 mM NADPH, 1 μM enzyme, 10 mM Tris-HCl pH 7.0, 100 mM NaCl; pH 7.0
# purified protein [5] = substrate: CSC; test: purified protein; assay type: biochemical, Candidatus Pelagibacter sp. HTCC7211; conditions: 0.25 mM NADPH, 1 μM enzyme, 10 mM Tris-HCl pH 7.0, 100 mM NaCl; pH 7.0
# purified protein [6] = substrate: NC(=O)C1=CN([C@@H]2O[C@H](COP(=O)(O)OP(=O)(O)OC[C@H]3O[C@@H](n4cnc5c(N)ncnc54)[C@H](OP(=O)(O)O)[C@@H]3O)[C@@H](O)[C@H]2O)C=CC1; test: purified protein; assay type: biochemical, Candidatus Pelagibacter sp. HTCC7211; conditions: 1 mM DMS, 1.5 μM enzyme
# [7] = target: the molecule itself; test: SEC; analytical gel filtration on a calibrated Superose 6 column, 10 mM Tris-HCl (pH 8.0), 100 mM NaCl; apparent mass 95 kDa against 52 kDa calculated for the monomer
molecule,measurement,setting,value
CNC [DMA],Km,Tmm7211 [1],181 ± 23.7 µM
Cc1cc2nc3c(=O)[nH]c(=O)nc-3n(C[C@H](O)[C@H](O)[C@H](O)COP(=O)(O)OP(=O)(O)OC[C@H]3O[C@@H](n4cnc5c(N)ncnc54)[C@H](O)[C@@H]3O)c2cc1C [FAD],"X-ray crystal structure, 1.8 Å",Tmm7211 [2]; FAD bound during expression in E. coli,the NADP^+ and FAD molecules can be clearly observed in the structure
NC(=O)c1ccc[n+]([C@@H]2O[C@H](COP(=O)(O)OP(=O)(O)OC[C@H]3O[C@@H](n4cnc5c(N)ncnc54)[C@H](OP(=O)(O)O)[C@@H]3O)[C@@H](O)[C@H]2O)c1 [NADP^+],"X-ray crystal structure, 1.8 Å",Tmm7211 [2]; crystallised with 5 mM NADPH,the NADP^+ and FAD molecules can be clearly observed in the structure
"trimethylamine monooxygenase from Pelagibacter sp. HTCC7211 (Tmm_(7211)) (enzyme, UniProt B6BQB2 1-444, looked up, trimethylamine monooxygenase (Tmm, EC 1.14.13.148), a bacterial flavin-containing monooxygenase of the SAR11 bacterium Pelagibacter sp; HTCC7211; 1335-bp full-length tmm gene, synthesised; 444 amino acid residues, calculated mass 52 kDa; NADPH (5 mM) was added before crystallisation, and NADP+ and FAD are seen in the structure; Cloned in pET28a; also called WT Tmm_(7211); recombinant Tmm_(7211); …) MSKVAIIGAGPCGLSILRAFEHLEKKGEKIPEIVCFEKQESWGGLWNYNWRTGSDQYGDPVPNSMYRYLWSNGPKECLEFADYSFDQHFGKSIPSFPPREVLQDYILGRVSKGNIKNKIKFNTRVINTVYRNDKFEINYQDKVNDKTLSDTFDYLVVSTGHFSVPFIPEYEGMSSFPGRIMHSHDFRDAEEFRGKNVIVLGSSYSAEDVALQCNKYGAKSVTIGYRHNPMGFKWPKGMKEVHYLDKLDGKKAIFKDGTEQDADVVILCTGYLHHFPFLDESLKLKTHNRLYPPKLYKGVVWQDNHKLLYLGMQDQFHTFNMFDCQAWFARDVIMDKIKMPSDDEIDKDINKWVSMEEKLENPDQMIDFQTEYTKELHNISDYPKIDFELIRKHFKEWEHHKVEDILTYRNKSFSSPVTGSVAPVHHTPWEKAMDDSMKTFLNKR",Km,purified protein [3],116.2 ± 13.8 µM
same,kcat,purified protein [3],0.0867 s⁻¹
same,kcat/Km,purified protein [3],747 M⁻¹ s⁻¹
same,Km,purified protein [4],139.0 ± 10.7 µM
same,kcat,purified protein [4],0.373 ± 0.0133 s⁻¹
same,kcat/Km,purified protein [4],2690 M⁻¹ s⁻¹
same,Km,purified protein [5],250.5 ± 23.0 µM
same,kcat,purified protein [5],0.075 ± 0.005 s⁻¹
same,kcat/Km,purified protein [5],300 M⁻¹ s⁻¹
same,Km,purified protein [6],12.8 ± 0.4 µM
same,kcat,purified protein [6],0.075 ± 0.005 s⁻¹
same,stoichiometry N,[7],2
"Tmm7211 (Candidatus Pelagibacter sp. HTCC7211; D314E) (protein, full-length synthesized gene (1335 bp, 444 residues, 52 kDa), N-terminal His tag (pET28a), E. coli BL21(DE3); Ni-NTA and Superdex-200) MSKVAIIGAGPCGLSILRAFEHLEKKGEKIPEIVCFEKQESWGGLWNYNWRTGSDQYGDPVPNSMYRYLWSNGPKECLEFADYSFDQHFGKSIPSFPPREVLQDYILGRVSKGNIKNKIKFNTRVINTVYRNDKFEINYQDKVNDKTLSDTFDYLVVSTGHFSVPFIPEYEGMSSFPGRIMHSHDFRDAEEFRGKNVIVLGSSYSAEDVALQCNKYGAKSVTIGYRHNPMGFKWPKGMKEVHYLDKLDGKKAIFKDGTEQDADVVILCTGYLHHFPFLDESLKLKTHNRLYPPKLYKGVVWQDNHKLLYLGMQEQFHTFNMFDCQAWFARDVIMDKIKMPSDDEIDKDINKWVSMEEKLENPDQMIDFQTEYTKELHNISDYPKIDFELIRKHFKEWEHHKVEDILTYRNKSFSSPVTGSVAPVHHTPWEKAMDDSMKTFLNKR",Km,purified protein [6],9.7 ± 0.5 µM
same,kcat,purified protein [6],0.0867 ± 0.00333 s⁻¹
"Tmm7211 (Candidatus Pelagibacter sp. HTCC7211; D314A) (protein, full-length synthesized gene (1335 bp, 444 residues, 52 kDa), N-terminal His tag (pET28a), E. coli BL21(DE3); Ni-NTA and Superdex-200) MSKVAIIGAGPCGLSILRAFEHLEKKGEKIPEIVCFEKQESWGGLWNYNWRTGSDQYGDPVPNSMYRYLWSNGPKECLEFADYSFDQHFGKSIPSFPPREVLQDYILGRVSKGNIKNKIKFNTRVINTVYRNDKFEINYQDKVNDKTLSDTFDYLVVSTGHFSVPFIPEYEGMSSFPGRIMHSHDFRDAEEFRGKNVIVLGSSYSAEDVALQCNKYGAKSVTIGYRHNPMGFKWPKGMKEVHYLDKLDGKKAIFKDGTEQDADVVILCTGYLHHFPFLDESLKLKTHNRLYPPKLYKGVVWQDNHKLLYLGMQAQFHTFNMFDCQAWFARDVIMDKIKMPSDDEIDKDINKWVSMEEKLENPDQMIDFQTEYTKELHNISDYPKIDFELIRKHFKEWEHHKVEDILTYRNKSFSSPVTGSVAPVHHTPWEKAMDDSMKTFLNKR",Km,purified protein [6],32.0 ± 0.6 µM
same,kcat,purified protein [6],0.035 ± 0.00167 s⁻¹
